In the assay the target is PD-L1 extracellular domain expressed in HEK293 cells (human) (UniProt Q9NZQ7). In words: gradient dilution ELISA on coated PD-L1, serum dilution 200. Background: In an ELISA, binding on a coated surface is turned into a signal by an enzyme label.
Sequence of PD-L1 extracellular domain expressed in HEK293 cells (human) (Q9NZQ7 19-238): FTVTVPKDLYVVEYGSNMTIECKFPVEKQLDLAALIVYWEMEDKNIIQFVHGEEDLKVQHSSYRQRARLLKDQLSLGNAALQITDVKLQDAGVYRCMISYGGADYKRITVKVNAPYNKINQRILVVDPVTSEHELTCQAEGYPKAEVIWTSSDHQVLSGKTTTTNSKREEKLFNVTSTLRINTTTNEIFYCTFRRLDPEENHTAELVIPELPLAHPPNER

On to Alpaca serum before immunization, for which the ELISA OD is 0.631 OD450 nm.

(Values after patent US20210002370A1.)
